In patent publication US20110136724A1 (IPSEN PHARMA S A S, published 2011):
Primed or numbered codes have the meaning given here. Where no end group is shown, it is not given here. [ ]: non-standard residue; d: D form. The star is where a group is joined. Psu″ = N-propylsuccinimide on the Cys thiol (Cys(Psu)), CCCN1C(=O)CC(*)C1=O; Psu(3) = N-propylsuccinimide on Cys S, CCCN1C(=O)CC(*)C1=O; Hsu = N-hexylsuccinimide on Cys S, CCCCCCN1C(=O)CC(*)C1=O; Psu = N-propylsuccinimide (on the Cys sulfur); 2Nal = N[C@@H](Cc1ccc2ccccc2c1)C(=O)O; d2Nal = N[C@H](Cc1ccc2ccccc2c1)C(=O)O; Cyclohexanecarbonyl = O=C(C1CCCCC1)*; Myristoyl = CCCCCCCCCCCCCC(=O)*; Cys(Psu) = not defined here; Decanoyl = CCCCCCCCCC(=O)*; Ac6c = NC1(C(=O)O)CCCCC1; Nle = CCCC[C@H](N)C(=O)O; Orn = NCCC[C@H](N)C(=O)O; Hexanoyl = CCCCCC(=O)*; Aib = CC(C)(N)C(=O)O

T1: human recombinant GIP receptor (human, UniProt P48546 22-466)
T1 construct: whole, on cells; Assayed as washed membranes of CHO-K1 cells expressing the receptor; also called hGIP receptor
T1 sequence (looked up): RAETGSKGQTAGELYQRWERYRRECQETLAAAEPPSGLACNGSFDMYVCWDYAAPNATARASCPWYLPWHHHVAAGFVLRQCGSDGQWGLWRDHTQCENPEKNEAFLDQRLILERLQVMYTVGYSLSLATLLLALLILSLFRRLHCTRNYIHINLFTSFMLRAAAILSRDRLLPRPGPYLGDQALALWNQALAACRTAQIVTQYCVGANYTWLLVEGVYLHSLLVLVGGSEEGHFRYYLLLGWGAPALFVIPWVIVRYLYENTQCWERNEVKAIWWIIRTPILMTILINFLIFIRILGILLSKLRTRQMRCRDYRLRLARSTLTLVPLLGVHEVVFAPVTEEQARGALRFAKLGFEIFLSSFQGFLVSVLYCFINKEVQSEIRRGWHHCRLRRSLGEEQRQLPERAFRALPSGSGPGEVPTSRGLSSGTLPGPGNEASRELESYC


molecular target: T1, human recombinant GIP receptor; assay: radioligand competition, [125I]GIP on membranes of CHO-K1 cells expressing human GIP receptor

Binder | Ki
XGTFXSDYSIAMDKIHQQDFVNWLLAQKGKKNDWKHNITQ (N-terminal acetyl (Ac); 4Hyp (4-hydroxyproline) at 3; A6c at 7; hGIP numbering; C-terminal free acid, Synthetic analogue of human GIP) [(Ac-4Hyp^3, A6c^7)hGIP(3-42)-OH] | 546 nM
[Ac6c]SDYSIAMDKIHQQDFVNWLLAQKGKK[Orn](Decanoyl)DWKHNITQ-OH (Synthetic analogue of human GIP) [[A6c^7, Orn^34(N-C(O)-(CH2)8-CH3)]hGIP(7-42)-OH] | 274 nM
XSDYSIAMDKIHQQDFVNWLLAQKC (N-terminal acetyl (Ac); A6c at 7; Cys(Psu) at 31; hGIP numbering; C-terminal amide, Synthetic analogue of human GIP) [[Ac-A6c^7, Cys(Psu)^31]hGIP(7-31)-NH2] | 48.3 nM
XSDYSIAMDKIHQQDFVNWLLAQKCKKN (N-terminal acetyl (Ac); A6c at 7; Cys(Psu) at 31; hGIP numbering; C-terminal amide, Synthetic analogue of human GIP) [(Ac-A6c^7, Cys(Psu)^31]hGIP(7-34)-NH2] | 115 nM
Ac-[Ac6c]SDYSIAMDKIHQQDFVNWLLAQK[Orn](Myristoyl)KKNDWKHNITQ-OH (Synthetic analogue of human GIP; also called [Ac-Ac6c^7, Orn(N-C(O)-(CH2)12-CH3)^31]hGIP(7-42)-OH) [[Ac-A6c^7, Orn^31(N-C(O)-(CH2)12-CH3)]hGIP(7-42)-OH] | 178 nM
XSDYSIAMDKIHQQDFVNWLLAQKGKKNDWKHNITQQ (N-terminal acetyl (Ac); A6c at 7; added Gln at 43; hGIP numbering; C-terminal free acid, Synthetic analogue of human GIP with an added residue 43) [(Ac-A6c^7, Gln^43)hGIP(7-43)-OH] | 7.92 nM
Ac-[Ac6c]SDYSIAMDKIHQQDFVNWLLAQKC(Psu(3))KKNDWKHNITQ-OH (Synthetic analogue of human GIP) [[Ac-A6c^7, Cys(Psu)^31]hGIP(7-42)-OH] | 963 nM
Ac-[Ac6c]SDYSIAMDKIHQQDFVNWLLAQKGKKNC(Psu)WKHNITQ-OH (Synthetic analogue of human GIP) [[Ac-A6c^7, Cys(Psu)^35]hGIP(7-42)-OH] | 486 nM
Ac-[Ac6c]SDYSIAMDKIHQQDFVNWLLAQKGKKNDWKC(Psu″)NITQ-OH (Synthetic analogue of human GIP) [[Ac-A6c^7, Cys(Psu)^38]hGIP(7-42)-OH] | 333 nM
Ac-[Ac6c]SDYSIAMDKIHQQDFVNWLLAQKGKKNDWKHC(Psu″)ITQ-OH (Synthetic analogue of human GIP) [[Ac-A6c^7, Cys(Psu)^39]hGIP(7-42)-OH] | 75.7 nM
Ac-[Ac6c]SDYSIAMDKIHQQDFVNWLLAQKGKC(Psu)NDWKHNITQ-OH (Synthetic analogue of human GIP) [[Ac-A6c^7, Cys(Psu)^33]hGIP(7-42)-OH] | 417 nM
Ac-[Ac6c]SDYSIAMDKIHQQDFVNWLLAQKGKKNDWC(Psu″)HNITQ-OH (Synthetic analogue of human GIP) [[Ac-A6c^7, Cys(Psu)^37]hGIP(7-42)-OH] | 127 nM
Ac-[Ac6c]SDYSIAMDKIHQQDFVNWLLAQKGKKNDC(Psu)KHNITQ-OH (Synthetic analogue of human GIP) [[Ac-A6c^7, Cys(Psu)^36]hGIP(7-42)-OH] | 442 nM
Ac-[Ac6c]SDYSIAMDKIHQQDFVNWLLAQKGC(Psu)KNDWKHNITQ-OH (Synthetic analogue of human GIP) [[Ac-A6c^7, Cys(Psu)^32]hGIP(7-42)-OH] | 687 nM
Ac-[Ac6c]SDYSIAMDKIHQQDFVNWLLAQKGKKC(Psu)DWKHNITQ-OH (Synthetic analogue of human GIP) [[Ac-A6c^7, Cys(Psu)^34]hGIP(7-42)-OH] | 735 nM
Ac-[Ac6c]SDYSIAMDKIHQQDFVNWLLAQKGKKNDWKHNC(Psu″)TQ-OH (Synthetic analogue of human GIP) [[Ac-A6c^7, Cys(Psu)^40]hGIP(7-42)-OH] | 532 nM
Cyclohexanecarbonyl-SDYSIAMDKIHQQDFVNWLLAQK[Cys(Psu)]KKNDWKHNITQ-OH (reading uncertain, Synthetic analogue of human GIP) [[Chc-Ser^8, Cys(Psu)^31]hGIP(8-42)-OH] | 403 nM
FXSDYSIAMDKIHQQDFVNWLLAQK (N-terminal acetyl (Ac) on Phe 6; A6c at 7; hGIP numbering; C-terminal amide, Synthetic analogue of human GIP) [(Ac-Phe^6, A6c^7)hGIP(6-30)-NH2] | 68.5 nM

Binder | Ki
FISDY[Aib]IA[Nle]DKIHQQDFVNWLLAQK-NH2 (Synthetic analogue of human GIP) [(Aib^11, Nle^14)hGIP(6-30)-NH2] | 170 nM
XXGTFXSDYSIAMDKIHQQDFVNWLLAQKGKKNDWKHNITQ (4Hppa (3-(4-hydroxyphenyl)propionic acid) at 2; 4Hyp at 3; A6c at 7; hGIP numbering; C-terminal free acid, Synthetic analogue of human GIP) [(4Hppa^2, 4Hyp^3, A6c^7)hGIP(2-42)-OH] | 294 nM
XEGTFISDYXIAMDKIHQQDFVNWLLAQKGKKNDWKHNITQ (4Hppa at 2; A6c at 11; hGIP numbering; C-terminal free acid, Synthetic analogue of human GIP) [(4Hppa^2, A6c^11)hGIP(2-42)-OH] | 91.8 nM
XPGTFISDYSIAXDKIHQQDFVNWLLAQKGKKNDWKHNITQ (4Hppa at 2; Pro at 3; Nle at 14; hGIP numbering; C-terminal free acid, Synthetic analogue of human GIP) [(4Hppa^2, Pro^3, Nle^14)hGIP(2-42)-OH] | 800 nM
XEGTFISDYSIXMDKIHQQDFVNWLLAQKGKKNDWKHNITQ (4Hppa at 2; Aib at 13; hGIP numbering; C-terminal free acid, Synthetic analogue of human GIP) [(4Hppa^2, Aib^13)hGIP(2-42)-OH)] | 12.9 nM
XEGTFISDYSIAXDKIHQQDFVNWLLAQKGKKNDWKHNITQ (4Hppa at 2; A6c at 14; hGIP numbering; C-terminal free acid, Synthetic analogue of human GIP) [(4Hppa^2, A6c^14)hGIP(2-42)-OH] | 50.4 nM
Ac-[Ac6c]SDYSIAMDKIHQQDFVNWLLAQK[d2Nal]KKNDWKHNITQ-OH (X stands for the non-natural residues) [(Ac-A6c^7, D-2Nal^31)hGIP(7-42)-OH] | 159 nM
FXSDYSIAXDKIHQQDFVNWLLAQK (A6c at 7; Nle at 14; hGIP numbering; C-terminal amide, Synthetic analogue of human GIP) [(A6c^7, Nle^14)hGIP(6-30)-NH2] | 212 nM
Ac-[Ac6c]SDYSIAMDKIHQQDFVNWLLAQK[2Nal]KKNDWKHNITQ-OH (Synthetic analogue of human GIP) [(Ac-A6c^7, 2Nal^31)hGIP(7-42)-OH] | 194 nM
Decanoyl-[Ac6c]SDYSIAMDKIHQQDFVNWLLAQKGKK[Orn](Decanoyl)DWKHNITQ-OH (Synthetic analogue of human GIP) [[CH3-(CH2)8-C(O)-A6c^7, Orn^34(N-C(O)-(CH2)8-CH3)]hGIP(7-42)-OH] | 164 nM
FXSDYSIAMDKIHQQDFVNWLLAQKC (N-terminal acetyl (Ac) on Phe 6; A6c at 7; Cys(Psu) at 31; hGIP numbering; C-terminal amide, Synthetic analogue of human GIP) [[Ac-Phe^6, A6c^7, Cys(Psu)^31]hGIP(6-31)-NH2] | 77.5 nM
Ac-F[Ac6c]SDYSIAMDKIHQQDFVNWLLAQKC(Psu″)KKNDWKHNITQ-OH (Synthetic analogue of human GIP) [[Ac-Phe^6, A6c^7, Cys(Psu)^31]hGIP(6-42)-OH] | 574 nM
Ac-DYSIAMDKIHQQDFVNWLLAQKGK[Cys(Psu)]NDWKHNITQ-OH (reading uncertain, Synthetic analogue of human GIP) [[Ac-Asp^9, Cys(Psu)^33]hGIP(9-42)-OH] | 472 nM
[Ac6c]SDYSIAMDKIHQQDFVNWLLAQKC(Hsu)KKNDWKHNITQ-OH (Synthetic analogue of human GIP) [[A6c^7, Cys(Hsu)^31]hGIP(7-42)-OH] | 772 nM
Hexanoyl-SDYSIAMDKIHQQDFVNWLLAQK[Cys(Psu)]KKNDWKHNITQ-OH (reading uncertain, Synthetic analogue of human GIP) [[CH3-(CH2)4-C(O)-Ser^8, Cys(Psu)^31]hGIP(8-42)-OH] | 205 nM
FXSDYSIAXDKIHQQDFVNWLLAQK (A5c (1-amino-1-cyclopentanecarboxylic acid) at 7; Nle (norleucine) at 14; hGIP numbering; C-terminal amide, Synthetic analogue of human GIP) [(A5c^7, Nle^14)hGIP(6-30)-NH2] | 734 nM
F[Ac6c]SDYSIAMDKIHQQDFVNWLLAQKC(Psu(3))KKNDWKHNITQ-OH (Synthetic analogue of human GIP) [[A6c^7, Cys(Psu)^31]hGIP(6-42)-OH] | 277 nM
FXSDYSIAMDKIHQQDFVNWLLAQKC (A6c at 7; Cys(Psu) at 31; hGIP numbering; C-terminal amide, Synthetic analogue of human GIP) [[A6c^7, Cys(Psu)^31]hGIP(6-31)-NH2] | 101 nM
